# Experimental data published in publication PMC7082061 (PLoS Pathogens, 2020).
# Biological target: full-length wild type MOKV G (MOKV G WT) (Mokola virus) (UniProt P0C572)
# Test: negative staining electron microscopy
# Chain of full-length wild type MOKV G (MOKV G WT) (P0C572 20-522): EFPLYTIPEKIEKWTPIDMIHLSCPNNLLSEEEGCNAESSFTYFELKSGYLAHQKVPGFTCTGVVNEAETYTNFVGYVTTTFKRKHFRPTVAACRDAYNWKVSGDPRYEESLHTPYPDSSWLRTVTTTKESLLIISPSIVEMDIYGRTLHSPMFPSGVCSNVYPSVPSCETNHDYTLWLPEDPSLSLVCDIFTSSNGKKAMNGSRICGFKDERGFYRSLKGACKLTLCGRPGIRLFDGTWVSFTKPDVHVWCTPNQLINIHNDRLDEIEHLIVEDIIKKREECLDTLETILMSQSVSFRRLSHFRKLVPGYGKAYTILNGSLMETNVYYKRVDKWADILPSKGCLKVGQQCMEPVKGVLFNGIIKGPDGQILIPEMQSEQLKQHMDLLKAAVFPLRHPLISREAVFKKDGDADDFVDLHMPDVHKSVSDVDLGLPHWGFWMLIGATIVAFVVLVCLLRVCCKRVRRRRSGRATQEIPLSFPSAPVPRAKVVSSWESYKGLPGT
substance,measurement,value
full-length wild type MOKV G (MOKV G WT) (from UniProt P0C572 20-522) (natural protein),stoichiometry N,3
